The values below come from the supplement of paper PMC9112550, “Optimization of the antimicrobial peptide Bac7 by deep mutational scanning” (BMC Biology, 2022).

The subject of the data set is Escherichia coli TOP10. In words: shrunken log2 fold change of peptide-encoding DNA abundance (4.5 h post-induction vs induction); higher = less antimicrobial activity (less host growth inhibition). Particulars: time post-induction: 4.5 h; library: site-saturation at positions 5, 18, 19, 20.
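Also: peptides expressed intracellularly from a pBAD plasmid library in pooled LB shake-flask culture, induced with 0.3% L-arabinose, DNA abundance read by NGS, three biological replicates, DESeq2 with apeglm shrinkage.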

Take RRIRCRPPRLPRPRPRPGALPRP: the “shrunken log2 fold change” value came to 0.264. For RRIRTRPPRLPRPRPRPIMGPRP the value was -0.0135; for RRIRWRPPRLPRPRPRPHPKPRP, 0.408. As to RRIRWRPPRLPRPRPRPSWCPRP, the “shrunken log2 fold change” value is -0.0416.

Take RRIRQRPPRLPRPRPRPHAEPRP: the “shrunken log2 fold change” value was -0.0176. For RRIRFRPPRLPRPRPRPCRQPRP the value was 0.229. For the sequence RRIRCRPPRLPRPRPRPQCTPRP, the “shrunken log2 fold change” value was -0.654.

RRIRCRPPRLPRPRPRPVLRPRP: the “shrunken log2 fold change” value turned out to be 0.183. For RRIRNRPPRLPRPRPRPCYHPRP the value was -0.0967. To RRIRYRPPRLPRPRPRPNHHPRP belongs -1.19.

Consider RRIRLRPPRLPRPRPRPPGRPRP, for which the “shrunken log2 fold change” value came out at 0.66. RRIRYRPPRLPRPRPRPHRGPRP: the “shrunken log2 fold change” value was -0.192. To RRIRDRPPRLPRPRPRPAYMPRP belongs -0.342; to RRIRNRPPRLPRPRPRPAYRPRP, 0.105.

On to RRIRRRPPRLPRPRPRPAAKPRP, for which the “shrunken log2 fold change” value came to 0.267. For RRIRCRPPRLPRPRPRPTDPPRP the value was 0.102. For RRIRDRPPRLPRPRPRPGRTPRP the value was -0.0421; for RRIRDRPPRLPRPRPRPCVRPRP, -0.111. Consider RRIRNRPPRLPRPRPRPSNIPRP, for which the “shrunken log2 fold change” value is -0.28. To RRIRNRPPRLPRPRPRPKNIPRP belongs -0.483; to RRIRPRPPRLPRPRPRPRFQPRP, -0.0819. For RRIRDRPPRLPRPRPRPDYFPRP the value was -0.052; for RRIRSRPPRLPRPRPRPHVIPRP, -0.6. To RRIRVRPPRLPRPRPRPKIEPRP belongs 0.132; to RRIRKRPPRLPRPRPRPGVAPRP, 0.892; to RRIRDRPPRLPRPRPRPPDIPRP, -0.0754. On to RRIRPRPPRLPRPRPRPHYPPRP, for which the “shrunken log2 fold change” value is -0.0221. To RRIRYRPPRLPRPRPRPLHYPRP belongs -1.53; to RRIRFRPPRLPRPRPRPTDEPRP, 0.00361; to RRIRKRPPRLPRPRPRPLSMPRP, 0.0129. To RRIRGRPPRLPRPRPRPMWYPRP belongs 0.293. As for RRIRSRPPRLPRPRPRPLCVPRP, the “shrunken log2 fold change” value was -0.143. To RRIRLRPPRLPRPRPRPQGHPRP belongs 0.137.

RRIRDRPPRLPRPRPRPGPRPRP: the “shrunken log2 fold change” value came out at 0.787. To RRIRARPPRLPRPRPRPKELPRP belongs 0.404. For RRIRWRPPRLPRPRPRPTAWPRP the value was 2; for RRIRPRPPRLPRPRPRPVLNPRP, -0.113. For RRIRMRPPRLPRPRPRPRIMPRP the value was 0.049; for RRIRSRPPRLPRPRPRPCREPRP, 0.157. With RRIRMRPPRLPRPRPRPWAKPRP, the “shrunken log2 fold change” value was 0.0317.

For the sequence RRIRTRPPRLPRPRPRPRVPPRP, the “shrunken log2 fold change” value was 0.105. For the sequence RRIRFRPPRLPRPRPRPAGNPRP, the “shrunken log2 fold change” value worked out at 0.135.

Turning to RRIRFRPPRLPRPRPRPWACPRP, the “shrunken log2 fold change” value was -0.15. For RRIRERPPRLPRPRPRPMLCPRP the value was 0.05; for RRIRPRPPRLPRPRPRPNTEPRP, -0.124; for RRIRHRPPRLPRPRPRPKLMPRP, 0.165. As for RRIRARPPRLPRPRPRPVLFPRP, the “shrunken log2 fold change” value worked out at 0.268. To RRIRNRPPRLPRPRPRPEGIPRP belongs 0.0204; to RRIRRRPPRLPRPRPRPHRDPRP, 0.546; to RRIRKRPPRLPRPRPRPVVGPRP, 0.686.

RRIRRRPPRLPRPRPRPFIKPRP: the “shrunken log2 fold change” value is -0.368. In the case of RRIRERPPRLPRPRPRPDQHPRP, the “shrunken log2 fold change” value was -0.165.

In the case of RRIRGRPPRLPRPRPRPQQIPRP, the “shrunken log2 fold change” value turned out to be 0.457. For RRIRSRPPRLPRPRPRPYPIPRP the value was -0.356. To RRIRLRPPRLPRPRPRPMFPPRP belongs -0.281. To RRIRARPPRLPRPRPRPNGSPRP belongs 0.304; to RRIRDRPPRLPRPRPRPQMHPRP, 0.156; to RRIRPRPPRLPRPRPRPNLFPRP, 0.175. Turning to RRIRYRPPRLPRPRPRPHSFPRP, the “shrunken log2 fold change” value is -0.00356. For RRIRTRPPRLPRPRPRPLHVPRP the value was -0.175.

Consider RRIRHRPPRLPRPRPRPLCSPRP, for which the “shrunken log2 fold change” value was -0.285. As to RRIRVRPPRLPRPRPRPSAQPRP, the “shrunken log2 fold change” value worked out at 0.0391.
